Results from the DeepSol protein solubility set.

Experiment: soluble on expression in E. coli; label from the status in PepcDB or PDB records

Row | Sequence | soluble on expression in E. coli
1 | MGSDKIHHHHHHMLKKSNIQWTAKQIAKMMDKGTLGFDNSVQRGLCWKTDKKILLIDSMFQNYPIPAFYAARNEDKTYDMLDGKQRCHAIKEFIEGKFKLDGIEEVELEDGESIDVNGMSFEELPEELQDRVKDYSLTVYFFLDLSDDQVSEMFYRLNNGKALSAIELTRVKAKSFDAIRELGNHEIFKNALTLKQVNKYTNEDIVIKTYAMLYTENPSFETKKIRPLMQDVEFTEQQKEEIKKAYSKILDIWKAINTEDKEHKKIAKRILTRTHLLTIIPIVIKSDKTIEELASWLLKFYSGKRRASISEKYNSAAGSGSARSESIKIRLEELKKDYNEYFSNQDEEINKKIEEIFKEGDSIE | not soluble
2 | MGSSHHHHHHSSGLVPRGSHMLEDPMGTLIRATTLSRLSFIDVVNDNGFYQFEKPKEGRKYVATLDCSEGRGQDYHALQIIDITEFPYKQVAVYHSNTTSHFILPDIVFKYLMMYNECPVYIELNSTGVSIAKSLAMDLEYDNIICDSFIDLGMKQSKRSKAMGCSALKDLIEKDKLIINHKGTIQELRTFSEKGVSWAAEEGFHDDLVMSLVIFGWLTTQEKFAEYAGKDE | soluble
3 | MGSDKIHHHHHHMSLDRVDWPHATFSTPVKRIFDTQTTLDFQSSLAIHRIKYHLHKYTTLISHCSDPDPHATASSIAMVNGLMGVLDKLAHLIDETPPLPGPRRYGNLACREWHHKLDERLPQWLQEMLPSEYHEVVPELQYYLGNSFGSSTRLDYGTGHELSFMATVAALDMLGMFPHMRGADVFLLFNKYYTIMRRLILTYTLEPAGSHGVWGLDDHFHLVYILGSSQWQLLDAQAPLQPREILDKSLVREYKDTNFYCQGINFINEVKMGPFEEHSPILYDIAVTVPRWSKVCKGLLKMYSVEVLKKFPVVQHFWFGTGFFPWVNIQNGTDLPVFEEKEEESIEQANAGSPGREQTSTRFPTSTSMPPPGVPPSGNNINYLLSHQNQSHRNQTSFSRDRLRR | not soluble
4 | MSIRSGSRRLELPHLSFPGLLRMNIHKNARLTPLRREEMAVAVFGGRLTKAQAARLYGVSLKIVSRWTERFRISGRAAMTDRSSRPTRSPRQMGQDIVERILHLRRQRLTGKHIAMETGVSPATVSRILRRAKLSRMKDIDPVEPVIRYEYAEPGGLIHLDIKRLGRFERVGHRITGNRTRQSNTRGVGWEYVHVCIDDVSRIAFTDIFPDEKAIMPLEHHHHHH | not soluble
5 | MAREGCLALNVECRGRRVKFEARMETLPNGRQILVDRVVFPDSVAVLPLVEKDGEWHVVLVRQFRPSIGKWTLEAPAGTLKEGETPEAAAARELEEEAGLKAKALVRVGGGHVSPGYSTEYIHLFLAYSLEKGEMSPEEHEVIEGVVEMRLSEALESIESGVIEDLKTIALVMAAASRVHQLEAGGGV | soluble
6 | MKIQDYTKQMVDEKSFIDMAYTLLNDKGETMNLYDIIDEFRALGDYEYEEIENRVVQFYTDLNTDGRFLNVGENLWGLRDWYSVDDIEEKIAPTIQKFDILDADDEEDQNLKLLGEDEMDDDDDIPAQTDDQEELNDPEDEQVEEEINHSDIVIEEDEDELDEDEEVFEDEEDFND | not soluble
7 | MGSDKIHHHHHHMTDSTIDALNKKLDRLIEAVGRLAPPPVPETDLAEADCFVWQADPGYLEPVRKVNRVDIGLIRGVDRVRDILVDNTERFAAGFAANNVLLWGARGMGKSSLVKAVHAEINAKSKSQKAKSDLPLKLIEIHREDIDTLPKLMGLLKAAPFRVILFCDDLSFDHDDTSYKSLKAALEGGVEGRPANVIFYATSNRRHLLPRDMIDNERSTAINPSEAVEEKVSLSDRFGLWLGFHKCSQDEYLEMVNAYASHHGLDIDPEQLRAEALEWATTRGSRSGRVAWQFTQDLAGRLGKPLKD | not soluble
8 | METYDLVIIGGGINGAGIARDAAGRGLSVLLCEKDDLASHTSSASTKLIHGGLRYLEYYEFGLVRKALQEREVLLKAAPHIIWPLRFVMPHARDQRPEWMIRAGLFLYDHLAKREVLPGSETVSFARHPSGAPLKDAFKRGFVYSDGWVQDARLVVLNAMDAAEHGAKIHVRTACVAARRDGEHWLATLEREDGSRFEVRARALVNAAGPWVQSLIEDKLAMPSSKSIRLVKGSHIVVKKIFDHPFAYIFQNPDKRIIFAIPYEKDFTLIGTTDVEYHGDPAQVAIDGDEINYLCEMSNRYFHSQITPADVLSTYSGVRPLLDDASDNASSVTRDYALEMDLKGAPLLSVFGGKITTFRKLAEEAVDKIAPLLGCGQATWTAGAPLPGGDMPGADFGRFLQGLRQRHPWLPEALAERWARAYGTRVGKLIGKADSLAGLGKEVLPGLYEAELAYLADAEWATRSEDILWRRSKLKLHLPANAAEVVDAWLAARAQPPREALSALEHHHHHH | not soluble
9 | SLQLHFTNDALPDNVSTDFQNLNKFSEQQFVSLTDILYQFLLEPKESERFLHQLTEFAGENGMSAGPLRALMKSILLLPHGALKRNLTAEQIKLDLLSLGLNEDKASHFSDQWRVHYPVLARLAVGQTLMVNQLVDMEWKFGVTVGTSELQKTGNIFLQLKLVIRKGNMTENVYMELTLPQFYSFLHEMERAKASMDCFS | soluble
10 | TAPTLAEEVKQQSDGSVIIEGSANLRDLNKLFNWHLPINEVRTFNGLILEHLEKIPIEGTQFRLNQLNITVLEVADNMVKKVKVELIE | soluble
11 | MAHHHHHHMKKRYGNAGDWAVVTGASEGIGYAMALDLGRRGFNVCVIARTLSKLENVVEELKQLGVQGKAISFDFASATPKQYDDMFAELDKIEIAVLVNNVGVNYTYTNYFDEVDLETDLRLLKVNCESSVRMTKYVVPKMKAKRCGAIVMLGSVSAVTPAPLLCTYAGTKAFNLSFGSGLYYELKQFGIDVLAVSPNMVVSKMTQGLSSRKPRETFLMVNADRMAHQTLDKLGSVPQTPGHCNHAVLEAIVRALPTGYVSNKILETHKSIKRKAERKRE | not soluble
12 | TEKKYIVALDQGTTSSRAVVMDHDANIISVSQREFEQIYPKPGWVEHDPMEIWATQSSTLVEVLAKADISSDQIAAIGITNQRETTIVWEKETGKPIYNAIVWQCRRTAEICEHLKRDGLEDYIRSNTGLVIDPYFSGTKVKWILDHVEGSRERARRGELLFGTVDTWLIWKMTQGRVHVTDYTNASRTMLFNIHTLDWDDKMLEVLDIPREMLPEVRRSSEVYGQTNIDGKGGTRIPISGIAGDQQAALFGQLCVKEGMAKNTYGTGCFMLMNTGEKAVKSENGLLTTIACGPTGEVNYALEGAVFMAGASIQWLRDEMKLINDAYDSEYFATKVQNTNGVYVVPAFTGLGAPYWDPYARGAIFGLTRGVNANHIIRATLESIAYQTRDVLEAMQADSGIRLHALRVDGGAVANNFLMQFQSDILGTRVERPEVREVTALGAAYLAGLAVGFWQNLDELQEKAVIEREFRPGIETTERNYRYAGWKKAVKRAMAWEEHDQLYTRASQPELAPEDPEDLEHHHHHH | soluble
13 | MIKINISQNFLVAKGHALFAEKGKDIVCAAISGIIFGGVAWFEPDKIEFTENKLVPSIALKLIDPTPNVAVAFSVITVQLKAIANSYPNHIVINEESYE | soluble
14 | MPGTTDQIDVNVEVKEKPTGAVMFGAGYSNMEGLILSGSVAQDNIFGTGKFVNLMVNTGSVNKTYSLSYTDPYFTKDGVTAGLDLYKRVLNTRTLSSVMNFNTDTLGAGLRFGIPINENDSIMGGLGAEQTTIDLGPDSPQRNIDFVNKFGRTTINIPATLSWRRDGRDSAIWTTSGTTQRVFAEVGLPGGDLTYYKLSYDLRWYFPITEIFTLMLNGELGYGDGYSGKELPFFKNFFAGGNTSVRGYNISSLGPRDATNRTLGGNKRAVGNIEVLFPMPGMRNDRTVRLSAFLDGGTVWGPGGVRPDQEGLRYSAGIAVTWISPMGPLKISVAQPLNSQPGDNIQRFQFQFGQQFLEHHHHHH | soluble
15 | MKFEILQQLNAERAARRPAIVVTDTATGAQRLVKAADIAADPLAAELGKQLRMGKSASIEIDGRKLFLNVYAPTAKLVIVGAVHISQALAPLARSLGYDVTVVDPRTAFASPERFPDVPLIAEWPDVALPPLNIDHYTAFVALTHDPKIDDPALLHAFARDCFYIGALGSKKTHAKRLERLKGQGASDADLGRIHAPIGLAIGAVSPSEIAVSIMAEITAALRLPASSKAAAA | not soluble
16 | MGSDKIHHHHHHMDTRIRDFVKTNECYFAVNTYYHPENSVISFLRYINIDKIGNHLLKDYELDENDIRILNGERFIKVADSSKAYAILKEYYPEYLFYDEINDVLLHAVPKTNIKEILSPQKRLEEVLNEQNTEAEIKCAKLADTLHDYGLEYKNMGVSGSTVLKLNNENSDIDFVIYGMEKHKIAREILSVTFKDGVLEPLSEDFWKKAYVKRIKDGTLTYDEFVWHEKRKLNRGVVDGVMFDLLATREWDEITENYGDKKYKNLGFIQIKAKVKDDTFVFDNPAVYKVENVEILNNENNAEVLASEIEEVVSFTHTYAGSTYNGEEIIVRGKLEEVSGKETYKRVVVGTTREAFNEYVKLAK | not soluble
17 | MSEIPTEVPVKTRKRTYDLKFKLHAINYALEHKNISKAAKDLNVNRQNIQQWIAQKAEIEKQLEDNGSTATKRLSGGGRPLKYDDVDKELIKWVHDQRKEKQRVTRRIIGETAKKISQNSDFKASRGWLDKFMCRHNLSTRRARTEPGDLMQTLVDILLRQTSSDDGEEDPMISFIKSCIPSGEDPLEGEDQAASSSVQVPKVLAEENGHESDSDQSIVDVND | not soluble
18 | MNETIRRILAESGTKTSKIRKLLLIGLSHREIADLLTRGNRGFVWNVYKRMRDEGLLPASQTATVLRPEPDYTFNRCFGVEIEAYNCPRQTLTDALREAGIPVEIGSRNAETNSNWKLTTDGSLEGSHTFELVSPILCGEQGLEVLERVCWVLDAYNVKINSSCGVHVHFNAGDFNLTTWQNLILSYKHAETEIDKFMPASRRGNRNTYCRSLRGFSDEDIRSAESIESLQRLFGSRYMKVNLEAYSRHRTVEFRQHSGTINFTKIENWVRFLGRMIIFASTASLPAGIRLEDFPFLGEKQKLYYKLRTKKLMV | not soluble
19 | SLNSLVSWQLLLFLCATHFGEPLEKVASVGNSRPTGQQLESLGLLAPGEQSLPCTERKPAATARLSRRGTSMSPPPESSGSPQQPGLSAPHSRQIPAPQGAVMVQREKDLPNYNWNSFGLRFGKREAAPGNHGRSAGR | soluble
20 | MKVAILGASGWIGSHLAAEAKMRGHEVVAVVRDPAKVTLKGVAVQQLDILNPESSLKSVLEGVDAVIASIGGRAAGNHEMVAKTAQRLLNELPQAGVARLLWVGGAGSLEVAPGVKLVTVPGFPEEYKGEALAQGEALEVFRASNSDVNWTFVSPAAEIFPGDKQGQYRVGGDQLLTDSEGNSRISVADYAVALIDELEYAEHPRQRIGVAYLEHHHHHH | not soluble
21 | MSLQSEKTEAVVTLGANLTKSERLQMLDAFGVKANEVKIIDVTNQDIREQLGLDTSKPIPASSQSISSSYVVVKDKGGINVTTNNLTEVTGSMLANALLTSGVNNADVKADAPFKVTGTAALAGILKGFEDASGEELSLPKKEAAREEISLTNNLSNAKTKDGQTLGKDEAAVVVNDIKTDVIKDKPKNDEEIGKIVNNVTNNYNILLTQGQQEQTIKFMSKINDLDYNYGAMKESLNQMNDKLQQILKDTGKQLEESGLLEKALNGIKNVLVDIKDFLVNMFSSASEKVKDGITYDENGNIVIKTGNNSDESKNEESIQDKPQTQSNDNNQNQENEQGQNQTKEGHHHHHH | not soluble
